This is an account of results in article PMC4997359 (Scientific Reports, 2016).

Assay [1] addresses cross-linked H3C110AK115C-H4T71C-Alexa 488 tetramer. The experiment in a line: other fluorescence titration; cross-linked H3C110AK115C-H4T71C-Alexa 488 titrated with increasing NP (pentamer); 150 mM NaCl, 20 mM Tris-HCl, pH 7.6, 1 mM DTT, 1% glycerol, 0.05% Tween 20; apparent Kd; ligand-depleted model, 1/1 NP pentamer/histone tetramer.
The target is the same in assay [2]. Kind of assay: other fluorescence titration; saturation stoichiometry: cross-linked H3C110AK115C-H4T71C-Alexa 488 at 10 times the apparent Kd titrated with NP; 150 mM NaCl, 20 mM Tris-HCl, pH 7.6, 1 mM DTT, 1% glycerol, 0.05% Tween 20.
Assay [3] addresses H3C110E-H4T71C-Alexa 488 (predominantly dimeric H3-H4 variant). Kind of assay: other fluorescence titration; saturation stoichiometry: labelled histone dimers at 10 times the apparent Kd titrated with NP; molar ratio at the intersection of the linear phase with the plateau; 150 mM NaCl, 20 mM Tris-HCl, pH 7.6, 1 mM DTT, 0.1 mg/ml BSA.
Assay [4] addresses H2A–H2BT112C-Alexa 488 dimer (UniProt P06897). The description is as above.
For assay [5], the target named is H3C110E-H4T71C-Alexa 488 (predominantly dimeric H3-H4 variant). Kind of assay: other fluorescence titration; labelled H3-H4 (H3C110E-H4T71C or H3C110A-H4T71C, Alexa 488; 0.1–10 nM) titrated with increasing NP (pentamer); 150 mM NaCl, 20 mM Tris-HCl, pH 7.6, 1 mM DTT, 0.1 mg/ml BSA; apparent Kd; ligand-depleted model with 2 sites per NP pentamer.
Assay [6] deals with H2A–H2BT112C-Alexa 488 dimer (UniProt P06897). Kind of assay: other fluorescence titration; labelled H2A–H2BT112C-Alexa 488 (0.1–10 nM) titrated with increasing NP (pentamer); 150 mM NaCl, 20 mM Tris-HCl, pH 7.6, 1 mM DTT, 0.1 mg/ml BSA; apparent Kd; ligand-depleted model with 5 sites per NP pentamer.
Assay [7] has as its target full-length recombinant nucleoplasmin (rNP) (X. laevis) (UniProt P05221). Kind of assay: other fluorescence titration; competition: preformed NP/H2A–H2BT112C-Alexa 488 complexes (eNP 0.1 nM/histone 1 nM; rNP 0.5 nM/histone 5 nM) titrated with unlabelled H1 or H5; EC50 converted by the Cheng-Prusoff equation; apparent Kd.
In assay [8] the target is egg nucleoplasmin (eNP), native NP from Xenopus laevis eggs (X. laevis) (UniProt P05221). The description is as above.
The target of assay [9] is T1, egg nucleoplasmin (eNP), native NP from Xenopus laevis eggs (X. laevis, UniProt P05221 1-200, natural post-translational modifications, in particular phosphorylation (hyperphosphorylated); sites not printed in the text (circles in Figure 1A)).
T1 construct: nucleoplasmin (NPM2), Xenopus laevis, 22 kDa subunit, residues 1-200 (core 1-120, tail 121-200); Homopentamer; also called NPM2; natural NP
The assay is described as above. Particulars: both partners purified.

In assay [10] the target is T2, full-length recombinant nucleoplasmin (rNP) (X. laevis, UniProt P05221 1-200).
T2 construct: nucleoplasmin (NPM2), Xenopus laevis, full length recombinant, non-phosphorylated; also called recombinant NP
The description is as above. The following applies: both partners purified.

Take “egg nucleoplasmin (eNP), native NP from Xenopus laevis eggs (from UniProt P05221 1-200) (natural protein)”: the Kd is 1.1 nM in assay [1], 0.05 nM in [5] and 0.06 nM in assay [6]. In addition, in assay [2], the stoichiometry N (cross-linked tetramer per NP pentamer) worked out at 1. For the same molecule, in [3], the stoichiometry N (H3-H4 dimers per NP pentamer) worked out at 2. Further, the stoichiometry N (H2A–H2B dimers per NP pentamer) in assay [4] worked out at 5.

For “full-length recombinant nucleoplasmin (rNP) (from UniProt P05221 1-200) (natural protein)”, the Kd was 2.1 nM in assay [1], 3 nM in assay [5] and 7 nM in assay [6]. The stoichiometry N (cross-linked tetramer per NP pentamer) in [2] worked out at 1. In addition, the stoichiometry N (H2A–H2B dimers per NP pentamer) in assay [4] came to 2.

With “linker histone H1 from chicken erythrocyte chromatin (from UniProt P09987 1-218) (natural protein)”, the Kd amounted to 1.7 nM in [7] and 0.07 nM in assay [8].

Take “oocyte nucleoplasmin (oNP), NP isolated from X. laevis oocytes (from UniProt P05221 1-200) (natural protein)”: in assay [4], the stoichiometry N (H2A–H2B dimers per NP pentamer) turned out to be 3. Also, the values for the Kd in assay [5] and in assay [6] were 0.09 nM and 0.11 nM, respectively.

As to “rNPΔ120–200, recombinant nucleoplasmin core lacking the whole C-terminal domain (from UniProt P05221 1-119) (domain or fragment)”, the Kd turned out to be 16000 nM in assay [5] and 11 nM in [6].

In the case of “rNPΔ150–200, recombinant nucleoplasmin lacking the last 50 residues (from UniProt P05221 1-149) (domain or fragment)”, the stoichiometry N (H2A–H2B dimers per NP pentamer) in assay [4] worked out at 5. In addition, the Kd in assay [5] was 0.05 nM; in assay [6] it was 0.12 nM.

B1: linker histone H5 from chicken erythrocyte chromatin (natural protein, UniProt P02259 1-190, looked up)
chain: MTESLVLSPAPAKPKRVKASRRSASHPTYSEMIAAAIRAEKSRGGSSRQSIQKYIKSHYKVGHNADLQIKLSIRRLLAAGVLKQTKGVGASGSFRLAKSDKAKRSPGKKKKAVRRSTSPKKAARPRKARSPAKKPKATARKARKKSRASPKKAKKPKTVKAKSRKASKAKKVKRSKPRAKSGARKSPKKK
notes: histone H5, chicken erythrocytes; Unlabelled
For the molecule B1, the Kd was 0.03 ± 0.006 nM in assay [9] and 0.7 ± 0.2 nM in assay [10].
